The source of these data is the domain aggregation screens of Martell et al. (2025).

A short description of this series: soluble fraction after stress (log2 fold change); higher = more stays soluble; pooled small domains, quantitative proteomics. The following applies: stress: 50 degC. An outline of the steps:
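Quantitative proteomics served as the high-throughput read-out for pooled custom libraries of small protein domains. Each was stressed at 50°C. Aggregation propensity is expressed as the base-two log fold change in soluble protein after stress. A higher value means a larger share of the protein remains in solution.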
For “HMVLPELRLQGLPTAVLRLINRATALADDYRRLMEIAEDGRIDEWEAPEFERISENIQRVIAAGFEVL”, the “soluble fraction (log2)” value is 0.0167.

As for “HMVLQHHTATKALSYHTSASASAAVKGSFARGDSVQVVQGGSQTADGAKWHKVKVGSSYYYAAAEHLTP”, the “soluble fraction (log2)” value was at least 0.62.

Regarding “HMVLTYYSVLGVKTDATTEEIKSTYKQLAIRNHPDRGGSEEVMKMINLAAEILSDPKSRKEYDLSLDA”, the “soluble fraction (log2)” value is -2.87.

With “HMVLVLPGEMIHVQVIDEGKEMGQGVGYLDDGTMVVVENGLRHIGRAIDVQVTKVLQTNAGRMIFGQPIL”, the “soluble fraction (log2)” value is -0.137.

With “HMVMAELRISVDRLQIGNYIKLPLSWRDHPFLLSSFMIKKEEQIQLIRQLRLKHVFIIPEKSDAPPKPA”, the “soluble fraction (log2)” value is -4.15.

With “HMVMNYKKIGKKIADRRILLGITQEELAEKVDSSANYISNIETGIKSGSLIFYIKVANELKLSLDFLFSDE”, the “soluble fraction (log2)” value is -0.893.

“HMVMPTGRVRYYDAEKGFGFLSKDSGGDDVYVRSSALPAGVTSLKRGQKVEFGIIDGKRGEQALSVHLL”: the “soluble fraction (log2)” value was -0.0933.

For “HMVMTTVPEVLGMDIRTAASMLTGKNLKYDYDLVESDKPKDEVIEQDQAKGTEVPEGTVVKLKVSKGPA”, the “soluble fraction (log2)” value came out at 0.0583.

Turning to “HMVMTTVPEVLGMDISKAASLLTGKNLDYDYDLVESDKPKDQVIEQDVVKGTEVPEGTVIHLKVSKGPA”, the “soluble fraction (log2)” value is 0.228.

As for “HMVMVVDVLKALSNNSSDKFFNTSISNAIKAQEDSQEDFVTLFGIEYEKLSPNNGLAVIFTSQ”, the “soluble fraction (log2)” value is 0.425.

Turning to “HMVNDDTIAATEAEILALLADKHRHHITELNSIRRPYEQIDAALSSLINEEKIFQEDGMLFV”, the “soluble fraction (log2)” value was found to be 0.144.

With “HMVNGEFIDRIKVILQENNATRKKDRLTKTRMYQLLQEEGYEGSYSAFTYQVRIIEEELGINNK”, the “soluble fraction (log2)” value was -1.51.

Regarding “HMVNSIQIHKKLRLDKRAGSDNWYARLTLPNGKRLVKTTKTEDIETAKEVALRLYYEVDARIQNKLPAT”, the “soluble fraction (log2)” value is -1.45.

As to “HMVPADVQHLRDIVDTMTEKQQLVYKLHVLEGYTFTEIAKLMGTSIPNVKKHYDKAILFIKNNF”, the “soluble fraction (log2)” value is -0.909.

Consider “HMVPEEEATKISVQNVGASDYNFTVKGVQANDPTLTLVRGKTYEFDVTSLGHPFWIKTQKVTGSSSQY”, for which the “soluble fraction (log2)” value was 0.1.

For the sequence “HMVPLSPRFFDIFRKRKDLTRQNVDVYFRDHPTEITAFERYIKGLVSQSYIPAERADALLLVASQYKAK”, the “soluble fraction (log2)” value is -0.784.

“HMVPSTAVIFTELVSMRSEPATKSPVTHQLTKGTAITINEEKDGWYQVTDQTGNSGWIVKWAVKPTYFTNP”: the “soluble fraction (log2)” value was -0.0492.

Consider “HMVPTYEAYVGKEGLVVGTLRPAGTAEFDGERLDVVSEGEYLEAGTRVQIVRTEGRRIVVRKIN”, for which the “soluble fraction (log2)” value was 0.0504.

Turning to “HMVPVVGTTIPHEFIGKFGSARVMLKPAVEGSGVIAGGSARAVLELAGYKDIKTKVLGTNNPRNVVYATMN”, the “soluble fraction (log2)” value came out at 0.0414.

For the sequence “HMVQDDDPNSVAKFIDQVIESNPEQVEQYRSGKEKVFNFFLGQTMRLSKGKANPDLVSELLKEKLS”, the “soluble fraction (log2)” value was found to be 0.0395.

For “HMVQIQDIAFSEFLNELEKGNILDVNIKGDLINGNMLDGKKFKTYAPYDPSLVEKLSKQNVTINVEPVN”, the “soluble fraction (log2)” value was determined as 0.0938.

As for “HMVQMKIRAYELEPNDFFIKQNMTYRVMRIQNGMIYAKHLLNSTPITFGAKSMEFVLWTGKYS”, the “soluble fraction (log2)” value was -2.36.

Regarding “HMVQQTEEDVIRDMYVEGKIFTIGEEVTDTYTGVTGKIIRRGTNYVTFMSEDGETYKKWLYEIELA”, the “soluble fraction (log2)” value is -1.

As to “HMVRDGDTFVVPKMDRFARNVEDTLHLVRELTERGVIFQMGHTVYDPHDPWSKLFLTFLAAIAEA”, the “soluble fraction (log2)” value is -0.00927.

Take “HMVREVGYNAFLAMLDSGAVKEVARDESEGQITFLATDEKGKERVYKTGIWPDDTLTERLNTAGVEFA”: the “soluble fraction (log2)” value came out at 0.178.

For the sequence “HMVREVSYDQFLHFVEAKQVGMVYQDGESLMFTLKEDVEKEWGVTAYKTGLWPDANLTDRLLDAGVVFS”, the “soluble fraction (log2)” value is -0.715.

Regarding “HMVRGNLAEELLKLREEEGISFQEAGARSGIARSTISQVVNQGLRLKPNQEESLWRVIEEVRGVKER”, the “soluble fraction (log2)” value amounted to 0.046.

For “HMVRSEDLIGLQGRITLATDVETRGFVELSVKGSLLRRPALSLKGPLAKNTAVVVTASNDHTLEVEAL”, the “soluble fraction (log2)” value was -0.573.
